Measured values reported in the supplement of paper PMC10724198.
± gives the standard deviation of the averaged measurements.
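Further: PSI is a weighted mean of sequencing reads over stability bins, variants kept only with over 10 reads, mCherry proximal and sfGFP distal, peptide attached via GGGS linker.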

The sequences below were run on Saccharomyces cerevisiae (assay: protein stability index of tFT-peptide fusion (C-terminal peptide) (PSI (0-1 scale)); higher = more stable (slower turnover)). Conditions: genetic background: wild type; temperature: 30 C.
Experimental: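 Multiplexed protein stability (MPS) profiling in S. cerevisiae. Random 12-aa peptides (tFT-X12 library) are fused to the C-terminus of a sfGFP-mCherry tandem fluorescent timer, after mCherry and a GGGS linker. Cells are FACS-sorted into 8 mCherry/sfGFP bins and deep-sequenced. The protein stability index (PSI) is the read-weighted bin average, scaled from 0 (unstable) to 1 (stable). Only peptides with >10 reads are reported; cells were grown at 30 °C in SC-His with glucose.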
With FISYFRFDRFGS the protein stability index was 0.699 ± 0.029.
Sequence SPPLPPPPPFPL has a protein stability index of 0.74 ± 0.053.
With YPSLPTLCSKQP the protein stability index was 0.643 ± 0.084.
YWGEGGCREGGE gave a protein stability index of 0.664 ± 0.056.
VLFPPLCLSFCF gave a protein stability index of 0.498 ± 0.044.
Sequence RDAVLSCARRSQ has a protein stability index of 0.752 ± 0.17.
For FPSSPPAHAAPH, the protein stability index was 0.68 ± 0.019.
HPETIGHNVRPR gave a protein stability index of 0.708 ± 0.048.
QIERSRIAYLST gave a protein stability index of 0.6933 ± 0.0027.
With PPSSPPPPLPPS the protein stability index was 0.712 ± 0.035.
For SPLDSPPLSSPP, the protein stability index was 0.659 ± 0.028.
Work on LRFGEGILLDWG yielded a protein stability index of 0.723 ± 0.043.
RVLDNYLTDYCL gave a protein stability index of 0.675 ± 0.061.
For NGLPGNLYAGKT, the protein stability index was 0.6558 ± 0.0062.
For STILSAEKTKLG, the protein stability index was 0.707 ± 0.02.
GSMRRSSVTLSA gave a protein stability index of 0.709 ± 0.065.
With VDDIIGIRKRNT the protein stability index was 0.691 ± 0.07.
For AYKCLPAKGADS, the protein stability index was 0.695 ± 0.047.
SPALPPPAPRLL was tested, and the protein stability index was 0.719 ± 0.061.
In the case of KKKKKKRIREKR, the protein stability index is reported as 0.721 ± 0.048.
For STVKARVLIITS, the protein stability index was 0.5231 ± 0.0032.
TEVWERGKNVGE showed a protein stability index of 0.635 ± 0.03.
SVLDAVGGSVTA gave a protein stability index of 0.668 ± 0.092.
QSKFNKFPIVET was tested, and the protein stability index was 0.656 ± 0.046.
With HQYLGMCLDRPV the protein stability index was 0.6455 ± 0.0054.
Work on SEEGMGRCSDEE yielded a protein stability index of 0.731 ± 0.028.
LYSGADPLPWGR was tested, and the protein stability index was 0.716 ± 0.01.
For WGGGSGRRIGCR, the protein stability index was 0.70604 ± 0.00021.
EEGARAAGGEPQ was tested, and the protein stability index was 0.68 ± 0.036.
PFAYFSRFLYFP gave a protein stability index of 0.633 ± 0.03.
In the case of APSLPPRLPWLY, the protein stability index is reported as 0.737 ± 0.015.
Sequence VVSDGARLVWGG has a protein stability index of 0.754 ± 0.12.
In the case of TRYKSMRAGVAG, the protein stability index is reported as 0.674 ± 0.067.
With SSRYVATANICR the protein stability index was 0.69 ± 0.013.
YFDVFLRLAFSR was tested, and the protein stability index was 0.655 ± 0.04.
GGARVAVCEGGE gave a protein stability index of 0.771 ± 0.026.
With RSPRSSSPHPIY the protein stability index was 0.7649 ± 0.006.
Sequence SEVIIAISNKNH has a protein stability index of 0.5275 ± 0.0019.
Work on CRSRRPFGSDPI yielded a protein stability index of 0.69 ± 0.019.
In the case of LAFFPRGTPPHS, the protein stability index is reported as 0.67 ± 0.029.
With VGTVREVYCQGG the protein stability index was 0.678 ± 0.014.
With RLGECSRKSYHT the protein stability index was 0.692 ± 0.024.
For TPPRHTRTSQTV, the protein stability index was 0.648 ± 0.0083.
QRNPQNKDRVQD gave a protein stability index of 0.663 ± 0.004.
In the case of FPPPLCLHRPIP, the protein stability index is reported as 0.786 ± 0.1.
LLFRSLASMEFP was tested, and the protein stability index was 0.6934 ± 0.0062.
In the case of VGFGLIVWSSGW, the protein stability index is reported as 0.529 ± 0.0077.
With FGYCFYRFHLQR the protein stability index was 0.666 ± 0.049.
Sequence TIASGCTWSPGH has a protein stability index of 0.645 ± 0.013.
In the case of PCHSPATRTLPC, the protein stability index is reported as 0.6824 ± 0.0025.
Work on YPTLMRNGTEKT yielded a protein stability index of 0.696 ± 0.017.
For VLFEARFSLRQS, the protein stability index was 0.6768 ± 0.0044.
For VGGCRLTRSSVW, the protein stability index was 0.688 ± 0.011.
Sequence HRCLCGCLDSVV has a protein stability index of 0.726 ± 0.028.
In the case of EYYRYLPVLIRL, the protein stability index is reported as 0.467 ± 0.055.
Sequence EVRCVFTGWHSS has a protein stability index of 0.785 ± 0.096.
With TDNIRIERYKEQ the protein stability index was 0.689 ± 0.064.
With LSRTAFRPSLTL the protein stability index was 0.746 ± 0.024.
In the case of GGGGLFGCWVCG, the protein stability index is reported as 0.654 ± 0.011.
RLVTSCSAAGSG gave a protein stability index of 0.671 ± 0.007.
LCGPKIGFVVSR showed a protein stability index of 0.704 ± 0.04.
PPPPPPPRALNL showed a protein stability index of 0.687 ± 0.038.
With TIGPVRSGHVLA the protein stability index was 0.6807 ± 0.0055.
Sequence DTVYSRAIAANA has a protein stability index of 0.545 ± 0.012.
PSAQPPPRPTRP was tested, and the protein stability index was 0.6878 ± 0.0036.
With RKMTSIINKKTV the protein stability index was 0.513 ± 0.0083.
ILIYFWFSFFFF was tested, and the protein stability index was 0.753 ± 0.013.
With VCDLLLTLSFCV the protein stability index was 0.587 ± 0.017.
With PHHAPRPPPFAG the protein stability index was 0.646 ± 0.05.
In the case of GDRGTLTPLRRQ, the protein stability index is reported as 0.678 ± 0.0073.
Work on SPLLPPPPSPPL yielded a protein stability index of 0.633 ± 0.081.
Work on PASRLHSPSSPP yielded a protein stability index of 0.703 ± 0.038.
Work on SRHGRTTKDFLQ yielded a protein stability index of 0.682 ± 0.014.
Work on GGGVGRLAGLLG yielded a protein stability index of 0.693 ± 0.046.
In the case of GGWPREVVGRGG, the protein stability index is reported as 0.671 ± 0.09.
Work on RTRMSEGECIST yielded a protein stability index of 0.708 ± 0.053.
For AHLLLRPPLVAH, the protein stability index was 0.486 ± 0.029.
For FVCCSIRFGCGW, the protein stability index was 0.604 ± 0.014.
With GLGGGVGGWLVV the protein stability index was 0.705 ± 0.041.
Work on SGPGPGAVGATC yielded a protein stability index of 0.702 ± 0.057.
Work on SLLPHAHAPSPL yielded a protein stability index of 0.673 ± 0.014.
In the case of FLPTALTQPLIT, the protein stability index is reported as 0.624 ± 0.028.
For GRDKLNEDRDKV, the protein stability index was 0.647 ± 0.0095.
PPFLSPLRPPSL was tested, and the protein stability index was 0.781 ± 0.09.
RSQIHEILLYLF showed a protein stability index of 0.492 ± 0.082.
With SSSYPFPAPALR the protein stability index was 0.683 ± 0.043.
With SPPPALPPPRPL the protein stability index was 0.749 ± 0.031.
Work on AVRSILYRVATR yielded a protein stability index of 0.729 ± 0.06.
For VGVWDGCLLGLG, the protein stability index was 0.695 ± 0.028.
Work on AVRPGEAGCAGL yielded a protein stability index of 0.664 ± 0.12.
With KHSTTSRCVWYT the protein stability index was 0.627 ± 0.13.
GCGRGGIAGGPR showed a protein stability index of 0.702 ± 0.0014.
CRTGHCRLTSKM gave a protein stability index of 0.708 ± 0.019.
LPRTPPPLAHGP gave a protein stability index of 0.688 ± 0.041.
SATHLLADPAPG was tested, and the protein stability index was 0.661 ± 0.088.
In the case of RFYLLAEDGSST, the protein stability index is reported as 0.703 ± 0.017.
For PPPPPSSPPPPA, the protein stability index was 0.639 ± 0.099.
Sequence TPLNPDSLDRPT has a protein stability index of 0.657 ± 0.0097.
